Assay results as given in US20100151003A1.
Bridges are numbered along the chain shown (N, C = ends). Where no end group is shown, it is not given here. DSPE = distearoylphosphatidylethanolamine; PEG3400 = polyethylene glycol, 3400 Da; PEG = not defined here

What was measured:
[1] = target: human EGFR on tumor cells (human) (UniProt P00533); experiment: cell-based or functional assay
[2] = target: human EGFR on tumor cells (human) (UniProt P00533); experiment: FACS, A431 cells preincubated with 2 ug EGF, 2 uM bio-P190:avidin complex, 4 °C

Binder	IC50 D4 (ug/ml), cell killing of MDA-MB-468 cells, 1 h treatment [1] [µg/mL]	IC50 D6 (ug/ml), cell killing of MDA-MB-468 cells, 1 h treatment [1] [µg/mL]	staining, fold over background (fold over background) [2]
{DSPE-PEG3400}-DPCTWEVWGRECLQ (disulfide 3-12; not fully specified; also: inserted in liposomes) [P190-PEG-DSPE conjugate inserted in STEALTH liposomes]	120	35	–
DPCTWEVWGRECLQ-{PEG-biotin} (disulfide 3-12 (inferred); reading uncertain) [Biotinylated-PEGylated P190]	–	–	20
